Laboratory results taken from the supplement of paper PMC9112550, “Optimization of the antimicrobial peptide Bac7 by deep mutational scanning” (BMC Biology, 2022).

Test system: Escherichia coli TOP10
Assay: shrunken log2 fold change of peptide-encoding DNA abundance (4.5 h post-induction vs induction); higher = less antimicrobial activity (less host growth inhibition)
Details: time post-induction: 4.5 h; library: site-saturation at positions 5, 18, 19, 20
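Also: peptides expressed intracellularly from a pBAD plasmid library in pooled LB shake-flask culture, induced with 0.3% L-arabinose, DNA abundance read by NGS, three biological replicates, DESeq2 with apeglm shrinkage.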

Row | Sequence | shrunken log2 fold change
1 | RRIRQRPPRLPRPRPRPMHMPRP | -0.369
2 | RRIRTRPPRLPRPRPRPSNYPRP | -1.22
3 | RRIRCRPPRLPRPRPRPTCLPRP | 0.00222
4 | RRIRGRPPRLPRPRPRPHNPPRP | -0.0429
5 | RRIRQRPPRLPRPRPRPTMHPRP | -0.0393
6 | RRIRQRPPRLPRPRPRPYPAPRP | -0.289
7 | RRIRERPPRLPRPRPRPTVKPRP | -0.218
8 | RRIRLRPPRLPRPRPRPHPNPRP | -0.247
9 | RRIRQRPPRLPRPRPRPWNHPRP | -0.0081
10 | RRIRARPPRLPRPRPRPFGRPRP | 0.547
11 | RRIRWRPPRLPRPRPRPYMTPRP | -0.877
12 | RRIRWRPPRLPRPRPRPEEKPRP | 0.584
13 | RRIRHRPPRLPRPRPRPSCEPRP | -0.569
14 | RRIRRRPPRLPRPRPRPWHEPRP | 0.041
15 | RRIRFRPPRLPRPRPRPYAEPRP | -0.823
16 | RRIRWRPPRLPRPRPRPQNNPRP | -0.622
17 | RRIRSRPPRLPRPRPRPKCQPRP | 0.607
18 | RRIRGRPPRLPRPRPRPHWDPRP | 0.645
19 | RRIRLRPPRLPRPRPRPCCQPRP | -0.194
20 | RRIRWRPPRLPRPRPRPCECPRP | -0.151
21 | RRIRDRPPRLPRPRPRPANRPRP | -0.0377
22 | RRIRARPPRLPRPRPRPEFWPRP | 1.12
23 | RRIRMRPPRLPRPRPRPGKNPRP | 0.417
24 | RRIRCRPPRLPRPRPRPHQNPRP | -0.276
25 | RRIRPRPPRLPRPRPRPGAHPRP | 0.355

Row | Sequence | shrunken log2 fold change
26 | RRIRERPPRLPRPRPRPHPCPRP | -0.0414
27 | RRIRSRPPRLPRPRPRPINSPRP | 0.0337
28 | RRIRTRPPRLPRPRPRPVFPPRP | -0.339
29 | RRIRLRPPRLPRPRPRPWLAPRP | -0.218
30 | RRIRIRPPRLPRPRPRPCVYPRP | -0.227
31 | RRIRQRPPRLPRPRPRPLTCPRP | -0.539
32 | RRIRKRPPRLPRPRPRPQGAPRP | 0.451
33 | RRIRTRPPRLPRPRPRPTVIPRP | -0.17
34 | RRIRPRPPRLPRPRPRPVMVPRP | 0.171
35 | RRIRARPPRLPRPRPRPRWWPRP | 0.199
36 | RRIRLRPPRLPRPRPRPSKPPRP | -0.0779
37 | RRIRLRPPRLPRPRPRPMDRPRP | -0.0152
38 | RRIRCRPPRLPRPRPRPNDRPRP | -0.299
39 | RRIRLRPPRLPRPRPRPSTSPRP | -0.0196
40 | RRIRFRPPRLPRPRPRPMMTPRP | 0.022
41 | RRIRLRPPRLPRPRPRPMAPPRP | 0.19
42 | RRIRVRPPRLPRPRPRPNKRPRP | -0.158
43 | RRIRDRPPRLPRPRPRPQCEPRP | 0.0364
44 | RRIRIRPPRLPRPRPRPMDEPRP | 0.00773
45 | RRIRLRPPRLPRPRPRPSKCPRP | -0.0487
46 | RRIRPRPPRLPRPRPRPFFWPRP | 0.559
47 | RRIRDRPPRLPRPRPRPEHPPRP | 0.054
48 | RRIRWRPPRLPRPRPRPHTCPRP | -0.00188
49 | RRIRGRPPRLPRPRPRPEQNPRP | 1.31
50 | RRIRKRPPRLPRPRPRPADWPRP | 0.666

Row | Sequence | shrunken log2 fold change
51 | RRIRWRPPRLPRPRPRPFVPPRP | -0.266
52 | RRIRNRPPRLPRPRPRPLYIPRP | -0.826
53 | RRIRWRPPRLPRPRPRPLMTPRP | 0.47
54 | RRIRERPPRLPRPRPRPIHWPRP | -0.0429
55 | RRIRTRPPRLPRPRPRPHFDPRP | -0.385
56 | RRIRMRPPRLPRPRPRPLYGPRP | -0.281
57 | RRIRCRPPRLPRPRPRPAHFPRP | 0.147
58 | RRIRCRPPRLPRPRPRPQNHPRP | -0.612
59 | RRIRGRPPRLPRPRPRPLMRPRP | 1.61
60 | RRIRCRPPRLPRPRPRPKSFPRP | -0.288
61 | RRIRFRPPRLPRPRPRPCYWPRP | -0.0974
62 | RRIRLRPPRLPRPRPRPSRAPRP | 0.0241
63 | RRIRFRPPRLPRPRPRPMPRPRP | 0.513
64 | RRIRKRPPRLPRPRPRPKTEPRP | -0.0466
65 | RRIRMRPPRLPRPRPRPEKKPRP | 0.104
66 | RRIRPRPPRLPRPRPRPWAPPRP | 0.153
67 | RRIRKRPPRLPRPRPRPRMMPRP | 0.492
68 | RRIRDRPPRLPRPRPRPSIHPRP | -0.123
69 | RRIRYRPPRLPRPRPRPVPHPRP | -0.262
70 | RRIRYRPPRLPRPRPRPKFGPRP | -0.000463
71 | RRIRPRPPRLPRPRPRPASKPRP | 0.022
72 | RRIRYRPPRLPRPRPRPPPEPRP | 0.456
73 | RRIRNRPPRLPRPRPRPSCDPRP | -0.179
74 | RRIRKRPPRLPRPRPRPMGVPRP | 0.196
75 | RRIRNRPPRLPRPRPRPCPPPRP | -0.328

Row | Sequence | shrunken log2 fold change
76 | RRIRGRPPRLPRPRPRPQWVPRP | 0.218
77 | RRIRDRPPRLPRPRPRPWVFPRP | 0.289
78 | RRIRNRPPRLPRPRPRPGSCPRP | -0.247
79 | RRIRVRPPRLPRPRPRPAAMPRP | 0.347
80 | RRIRLRPPRLPRPRPRPWTLPRP | 0.00677
81 | RRIRTRPPRLPRPRPRPMVAPRP | 0.0166
82 | RRIRMRPPRLPRPRPRPLISPRP | 0.171
83 | RRIRKRPPRLPRPRPRPENDPRP | -0.0386
84 | RRIRNRPPRLPRPRPRPQHNPRP | -0.625
85 | RRIRFRPPRLPRPRPRPEFVPRP | 0.0629
86 | RRIRDRPPRLPRPRPRPKCYPRP | 0.013
87 | RRIRRRPPRLPRPRPRPHEIPRP | -0.0745
88 | RRIRYRPPRLPRPRPRPHRAPRP | -0.213
89 | RRIRLRPPRLPRPRPRPRNRPRP | 0.267
90 | RRIRPRPPRLPRPRPRPFSEPRP | -0.436
91 | RRIRERPPRLPRPRPRPDAWPRP | 0.0128
92 | RRIRMRPPRLPRPRPRPRLTPRP | 1.13
93 | RRIRSRPPRLPRPRPRPTFYPRP | -0.231
94 | RRIRARPPRLPRPRPRPFVEPRP | 0.108
95 | RRIRIRPPRLPRPRPRPHHFPRP | -0.313
96 | RRIRRRPPRLPRPRPRPQLEPRP | 0.059
97 | RRIRMRPPRLPRPRPRPCHRPRP | 0.00646
98 | RRIRLRPPRLPRPRPRPHCAPRP | -0.309
99 | RRIRIRPPRLPRPRPRPTGHPRP | -0.116
100 | RRIRFRPPRLPRPRPRPPFMPRP | 0.0431

Row | Sequence | shrunken log2 fold change
101 | RRIRYRPPRLPRPRPRPMSNPRP | -0.709
102 | RRIRPRPPRLPRPRPRPIAVPRP | -0.0448
103 | RRIRTRPPRLPRPRPRPMFWPRP | 0.285
104 | RRIRQRPPRLPRPRPRPKQVPRP | 0.0304
105 | RRIRDRPPRLPRPRPRPPQSPRP | 0.613
106 | RRIRERPPRLPRPRPRPQQYPRP | -0.318
107 | RRIRYRPPRLPRPRPRPPSAPRP | 0.388
108 | RRIRFRPPRLPRPRPRPTHGPRP | -0.0666
109 | RRIRMRPPRLPRPRPRPQQEPRP | 0.137
110 | RRIRERPPRLPRPRPRPIDWPRP | -0.0206
111 | RRIRPRPPRLPRPRPRPTQNPRP | 0.534
112 | RRIRHRPPRLPRPRPRPMAKPRP | -0.124
113 | RRIRRRPPRLPRPRPRPPIKPRP | 0.14
114 | RRIRRRPPRLPRPRPRPACCPRP | 0.714
115 | RRIRGRPPRLPRPRPRPDGHPRP | 0.471
116 | RRIRERPPRLPRPRPRPQQKPRP | -0.157
117 | RRIRMRPPRLPRPRPRPAQQPRP | 0.612
118 | RRIRWRPPRLPRPRPRPRGAPRP | 0.586
119 | RRIRHRPPRLPRPRPRPLSLPRP | -0.492
120 | RRIRNRPPRLPRPRPRPIRNPRP | -0.422
121 | RRIRFRPPRLPRPRPRPCLKPRP | -0.148
122 | RRIRDRPPRLPRPRPRPLSYPRP | 0.194
123 | RRIRSRPPRLPRPRPRPMFLPRP | -0.595
124 | RRIRFRPPRLPRPRPRPMDMPRP | 0.0169
125 | RRIRLRPPRLPRPRPRPKMTPRP | -0.181

Row | Sequence | shrunken log2 fold change
126 | RRIRMRPPRLPRPRPRPQPAPRP | 1.55
127 | RRIRSRPPRLPRPRPRPTKHPRP | -0.151
128 | RRIRQRPPRLPRPRPRPSQKPRP | 0.0595
129 | RRIRYRPPRLPRPRPRPAQAPRP | 0.0486
130 | RRIRPRPPRLPRPRPRPKCIPRP | -1.04
131 | RRIRDRPPRLPRPRPRPGMDPRP | 0.216
132 | RRIRQRPPRLPRPRPRPAQCPRP | -0.017
133 | RRIRRRPPRLPRPRPRPSQTPRP | 0.294
134 | RRIRCRPPRLPRPRPRPDIQPRP | -0.268
135 | RRIRKRPPRLPRPRPRPGYNPRP | 0.178
136 | RRIRARPPRLPRPRPRPMMWPRP | 0.617
137 | RRIRERPPRLPRPRPRPLPQPRP | -0.06
138 | RRIRQRPPRLPRPRPRPKGHPRP | -0.139
139 | RRIRFRPPRLPRPRPRPTLSPRP | 0.0323
140 | RRIRCRPPRLPRPRPRPAMRPRP | 0.509
141 | RRIRWRPPRLPRPRPRPERCPRP | 0.449
142 | RRIRARPPRLPRPRPRPSWKPRP | 0.237
143 | RRIRRRPPRLPRPRPRPCSTPRP | 0.0875
144 | RRIRCRPPRLPRPRPRPYENPRP | -0.145
145 | RRIRCRPPRLPRPRPRPYKVPRP | -1.05
146 | RRIRMRPPRLPRPRPRPGHMPRP | -0.203
147 | RRIRGRPPRLPRPRPRPFVYPRP | 0.077
148 | RRIRPRPPRLPRPRPRPCSKPRP | 0.0051
149 | RRIRYRPPRLPRPRPRPSHGPRP | -0.274
150 | RRIRCRPPRLPRPRPRPFHQPRP | -0.429
